Substrate in this series: O=C1O[C@H]([C@@H](O)CO)C(=O)C1=O
The series is described as follows: purified protein.

Where [1] appears, read: co-substrate GSH (2 mM), 50 mM phosphate pH 6.8, 0.2 mM EDTA.
[2] abbreviates: co-substrate GSH, 50 mM phosphate pH 6.8, 0.2 mM EDTA.

Our source for the Km and kcat values is paper doi:10.1101/2021.08.28.458007v1.

Changes are numbered by the printed parent chain. Names and notes keep the numbering of the source.

B1: PgDHAR (Cenchrus americanus) (protein)
chain: MAVEVCVKAAVGAPDILGDCPFSQRVLLTLEEKKITYEMKLVDLSNKPEWFLKISPEGKVPVFNSGDGKWIADSDVITQVIEEKFPTPSLVTPPEYASVGSKIFPSFVKFLKSKDASDGSEKALLDELQALDEHLKAHGPYISGENVSAADLSLGPKLFHLQVALEHFKGWKIPENLTSVHAYTKALFSRESFVKTKPANQYLIAGWAPKVNA
B1: under setting [1], the Km is on record as 159.2 (±11.4) μM and the kcat is 2271.663 s⁻¹.

B2: PgDHAR (Cenchrus americanus; K8A) (protein)
chain: B1 chain with K8A
Consider B2, for which, under setting [2], the Km is 1842 (±414.3) μM and the kcat was found to be 89.34 s⁻¹.

B3: PgDHAR (Cenchrus americanus; D19A) (protein)
chain: B1 chain with D19A
For the protein B3, under setting [2], the Km is reported as 245.7 (±75.7) μM and the catalytic constant (kcat) was found to be 20.35 s⁻¹.

B4: HsGSTO1-1 (Homo sapiens) (protein)
chain: SGESARSLGKGSAPPGPVPEGSIRIYSMRFCPFAERTRLVLKAKGIRHEVININLKNKPEWFFKKNPFGLVPVLENSQGQLIYESAITCEYLDEAYPGKKLLPDDPYEKACQKMILELFSKVPSLVGSFIRSQNKEDYAGLKEEFRKEFTKLEEVLTNKKTTFFGGNSISMIDYLIWPWFERLEAMKLNECVDHTPKLKLWMAAMKEDPTVSALLTSEKDWQGFLELYLQNSPEACDYGL
For the protein B4, the Km (co-substrate GSH, marked 'This study' (footnote a)) is 138.2 (±27.07) μM.
